# Reference: article doi:10.64898/2025.12.19.695442, “TRIM37 recognizes a bipartite degron to ubiquitinate centrosome substrates” (bioRxiv, 2025)
# Where a chain is given by its changes, count along the chain named. Names may count otherwise.
# B1: TRIM37 (enzyme, UniProt O94972 1-964, looked up)
# chain: MDEQSVESIAEVFRCFICMEKLRDARLCPHCSKLCCFSCIRRWLTEQRAQCPHCRAPLQLRELVNCRWAEEVTQQLDTLQLCSLTKHEENEKDKCENHHEKLSVFCWTCKKCICHQCALWGGMHGGHTFKPLAEIYEQHVTKVNEEVAKLRRRLMELISLVQEVERNVEAVRNAKDERVREIRNAVEMMIARLDTQLKNKLITLMGQKTSLTQETELLESLLQEVEHQLRSCSKSELISKSSEILMMFQQVHRKPMASFVTTPVPPDFTSELVPSYDSATFVLENFSTLRQRADPVYSPPLQVSGLCWRLKVYPDGNGVVRGYYLSVFLELSAGLPETSKYEYRVEMVHQSCNDPTKNIIREFASDFEVGECWGYNRFFRLDLLANEGYLNPQNDTVILRFQVRSPTFFQKSRDQHWYITQLEAAQTSYIQQINNLKERLTIELSRTQKSRDLSPPDNHLSPQNDDALETRAKKSACSDMLLEGGPTTASVREAKEDEEDEEKIQNEDYHHELSDGDLDLDLVYEDEVNQLDGSSSSASSTATSNTEENDIDEETMSGENDVEYNNMELEEGELMEDAAAAGPAGSSHGYVGSSSRISRRTHLCSAATSSLLDIDPLILIHLLDLKDRSSIENLWGLQPRPPASLLQPTASYSRKDKDQRKQQAMWRVPSDLKMLKRLKTQMAEVRCMKTDVKNTLSEIKSSSAASGDMQTSLFSADQAALAACGTENSGRLQDLGMELLAKSSVANCYIRNSTNKKSNSPKPARSSVAGSLSLRRAVDPGENSRSKGDCQTLSEGSPGSSQSGSRHSSPRALIHGSIGDILPKTEDRQCKALDSDAVVVAVFSGLPAVEKRRKMVTLGANAKGGHLEGLQMTDLENNSETGELQPVLPEGASAAPEEGMSSDSDIECDTENEEQEEHTSVGGFHDSFMVMTQPPDEDTHSSFPDGEQIGPEDLSFNTDENSGR
# notes: TRIM37, E3 ubiquitin ligase; 459-964; The co-immunoprecipitation methods say only 'TRIM37 (1 ug)', the same amount as the Abcam protein of the ubiquitination assay; also called purified TRIM37; source: bought: Abcam ab269066
# B2: TRIM37(C18R) (enzyme, UniProt O94972 1-964, looked up)
# chain: B1 chain with C18R
# notes: TRIM37 with C18R; cross-links are reported from the N-terminus (a.a. 1-458) and the tail (a.a. 459-964); source: purified
# B3: Cep192 C-terminus fragment (2070-2537 aa), GFP-tagged (domain or fragment, UniProt Q8TEP8-3 2070-2537, looked up)
# chain: REFLQPSSKASLESTSDLGASGKHGGNVSLDVLPVKGPQGSPLLSRAARPPLDQLASEEPWTVLPEHLILVAPSPCDMAKTGRFQIVNNSVRLLRFELCWPAHCLTVTPQHGCVAPESKLQILVSPNSSLSTKQSMFPWSGLIYIHCDDGQKKIVKVQIREDLTQVELLTRLTSKPFGILSPVSEPSVSHLVKPMTKPPSTKVEIRNKSITFPTTEPGETSESCLELENHGTTDVKWHLSSLAPPYVKGVDESGDVFRATYAAFRCSPISGLLESHGIQKVSITFLPRGRGDYAQFWDVECHPLKEPHMKHTLRFQLSGQSIEAENEPENACLSTDSLIKIDHLVKPRRQAVSEASARIPEQLDVTARGVYAPEDVYRFRPTSVGESRTLKVNLRNNSFITHSLKFLSPREPFYVKHSKYSLRAQHYINMPVQFKPKSAGKFEALLVIQTDEGKSIAIRLIGEALGKN
# notes: Cep192 residues 2070-2537 (ASH6, ASH7, ASH8 and the IDRs between them); also called C-terminal Cep192; Cep192 C-terminal fragment; source: purified (Ni-NTA, gel filtration)
# How the values were obtained:
# [1] = target: Centrobin peptide motif (Homo sapiens) (UniProt Q8N137); conditions: cited from earlier work
# GFP-Cep192(IDR+ASH8) = assay: pull-down; supernatant depletion: 30 nM TRIM37 with a range of GFP-Cep192(IDR+ASH8) concentrations and GFP-Trap magnetic particles, 25 mM HEPES pH 7.4, 150 mM KCl, 1 mM DTT, 1 hr at room temperature; unbound TRIM37 in the supernatant by Western blot; one phase association fit
# [2] = target: T1, full-length Cep192 tagged with GFP (UniProt Q8TEP8-3 1-2537); assay: pull-down; purified GFP fusion (1 uM) incubated with TRIM37 (1 ug) 1 hr at 37°C, precipitated with GFP-Trap magnetic particles; washes 150 mM KCl, 25 mM HEPES, 1% glycerol, 0.05% NP-40, last wash 500 mM KCl; Western blot against TRIM37; conditions: both partners purified
# T1 construct: Cep192, full length (2537 aa by the printed range 2070-2537); MW with GFP = 307 kDa; also called GFP-Cep192; source: baculovirus-infected SF9 insect cells, purified (Ni-NTA, gel filtration)
# [3] = target: the molecule itself; assay: cross-linking; XL-MS: 5 uM TRIM37(C18R) and 5 uM IDR+ASH8, 100 nM ZnCl2, 25 mM HEPES, 150 mM KCl pH 7.4, 20 min at 37°C, 1 mM DSSO 5 min; band of the complex cut from SDS-PAGE; calculated FDR <1%
# TRIM37 = target: B1; assay: pull-down; purified GFP fusion (1 uM) incubated with TRIM37 (1 ug) 1 hr at 37°C, precipitated with GFP-Trap magnetic particles; washes 150 mM KCl, 25 mM HEPES, 1% glycerol, 0.05% NP-40, last wash 500 mM KCl; Western blot against TRIM37; conditions: both partners purified
molecule,measurement,setting,value
TRIM37 MATH (from UniProt O94972),Kd,[1],14 µM
TRIM37 (from UniProt O94972 1-964),Kd,GFP-Cep192(IDR+ASH8),0.075 µM
B1,binding result,[2],binds
B2,binding result,[3],binds
B3,binding result,TRIM37,binds
